# According to patent US20260234232A1 (QUAERITE BIOPHARM RESEARCH BEIJING, published 2026):
# Like-named read-outs stand apart in the source and are kept apart here.
# Key:
# [1] = biological target: T1, human VEGFA165 (human, UniProt P15692-4 27-191); assay: ELISA, coated human VEGFA165, anti-His detection
# T1 construct: Bought protein from two suppliers, treated as one molecule; the supplier is named under assay; also called antigen VEGFA
# Experimental: (§1) Antigen human VEGFA165 (label-free, purchased from Sino Biological, Cat. No.: HPLC-10008-HNAH, hereinafter referred to as VEGFA) was diluted with ELISA coating buffer to a final concentration of 0.3 μg/mL and added to a microplate at 100 μL/well for coating at 4° C. overnight. […] The solution used for antibody dilution was PBS containing 0.1% Tween-20 (pH 7.4), i.e., PBST. After being incubated at 37° C. for 1 h, the microplate was washed 3 times with PBST, and a dilution of His-Tag murine monoclonal antibody (purchased from Proteintech, Cat. No.: 66005-1-Ig) was added. The plate was further incubated at 37° C. for 1 h and washed again. Subsequently, a dilution of HRP-labeled goat anti-mouse IgG antibody (HRP-conjugated Affinipure Goat Anti-Mouse IgG (H+L), purchased from Proteintech, Cat. No.: SA00001-1) was added, and the plate was incubated at room temperature for 45 min. After the plate was washed, 100 μL of TMB (purchased from Tiangen Biotech, Cat. No.: PA107-01) was added to each well for color development at 37° C. for 15 min, followed by the addition of 50 μL of stopping solution. The absorbance at 450 nm (OD450) was measured using a microplate reader.
# [2] = biological target: T1, human VEGFA165; assay: competitive ELISA, coated VEGFA, competitor VEGFR2-ECD-Fc 1 nM
# Experimental: (§2) Antigen VEGFA was diluted with ELISA coating buffer (final concentration of […]) and added to a 96-well microplate at 100 μL/well for coating at 4° C. overnight. […] The plate was incubated at 37° C. for 1 h and washed 3 times with PBST. Subsequently, a dilution of HRP-labeled goat anti-human IgG antibody (HRP-conjugated Goat Anti-Human IgG, purchased from Proteintech, Cat. No.: A21050) was added, and the plate was further incubated at room temperature for 45 min. After the plate was washed, 100 μL of TMB (purchased from Tiangen Biotech, Cat. No.: PA107-01) was added to each well for color development at 37° C. for 15 min, followed by the addition of 50 μL of stopping solution. The absorbance at 450 nm (OD450) was measured using a microplate reader.
# [3] = biological target: T1, human VEGFA165; assay: ELISA, coated human VEGFA165, anti-His detection; remark: listed apart in the source
# Experimental: as §1
# The experimental procedure was the same as that described in “2.
# [4] = biological target: T1, human VEGFA165; assay: SPR Biacore 8K, VEGFA165 on CM5, nanobody analyte, 1:1 fit
# Experimental: Using the Biacore 8K instrument (Cytiva), the antigen VEGFA165 (label-free, purchased from Sino Biological, Cat. No.: HPLC-10008-HNAH) as the ligand was coupled onto a CM5 chip through amino-coupling reagents (EDC and NHS), with the coupling level being about 400 RU. The mobile phase buffer was HBS-EP (0.01 M HEPES pH 7.4, 0.15 M NaCl, 3 mM EDTA, 0.005% v/v Tween 20) during the experiment. […] In the kinetic analysis, the binding time between the antigen and the antibody was 240 s, the dissociation time was 1500 s, and the flow rate was 30 μL/min. In a multi-cycle mode, the chip was regenerated with 100 mM hydrochloric acid.
# [5] = biological target: T1, human VEGFA165; assay: ELISA, coated human VEGFA165, anti-His detection; remark: listed apart in the source
# Experimental: as §1
# [6] = biological target: T1, human VEGFA165; assay: ELISA, coated human VEGFA165, anti-His detection; remark: listed apart in the source
# Experimental: as §1
# [7] = biological target: T1, human VEGFA165; assay: competitive ELISA, coated VEGFA, competitor VEGFR2-ECD-Fc 1 nM; remark: listed apart in the source
# Experimental: as §2
# [8] = biological target: T1, human VEGFA165; assay: as above; remark: listed apart in the source
# T1 sequence (P15692 other isoform, or with tags, fused parts or gaps limits assumed): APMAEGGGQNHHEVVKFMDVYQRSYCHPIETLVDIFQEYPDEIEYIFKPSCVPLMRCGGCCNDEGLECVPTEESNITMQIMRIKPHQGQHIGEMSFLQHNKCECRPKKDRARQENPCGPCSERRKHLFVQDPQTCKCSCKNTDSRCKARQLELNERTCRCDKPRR
Binder,EC50 [1] [nM],IC50 [2] [nM],EC50 [3] [nM],Kd [4] [nM],koff [4] [s⁻¹],kon [4] [M⁻¹ s⁻¹],also measured
"2V41-9GS (VHH, Tandem bivalent nanobody) QLQLVESGGGSVQPGGSLRLSCEVSGRTFSSYTMGWFRQAPGKEREFVVAISKGGYKYDSVSLEARFTISKDNTKNTVYLQMNSLKPEDTAVYYCAGTRAYGSSRLRLAKTYEYWGQGTQVTVSSGGGGSGGGSQLQLVESGGGSVQPGGSLRLSCEVSGRTFSSYTMGWFRQAPGKEREFVVAISKGGYKYDSVSLEARFTISKDNTKNTVYLQMNSLKPEDTAVYYCAGTRAYGSSRLRLAKTYEYWGQGTQVTVSS",0.27,1.97,–,–,–,–,–
"2V1-9GS (VHH, Tandem bivalent nanobody) QLQLVESGGGSVQPGGSLRLSCEVSGRTFSSYTMGWFRQAPGKEREFVVAISKGGYKYDSVSLEARFTISKDNTKNTVYLQMNSLKPEDTAVYYCAATRAYGSSRLRLADTYEYWGQGTQVTVSSGGGGSGGGSQLQLVESGGGSVQPGGSLRLSCEVSGRTFSSYTMGWFRQAPGKEREFVVAISKGGYKYDSVSLEARFTISKDNTKNTVYLQMNSLKPEDTAVYYCAATRAYGSSRLRLADTYEYWGQGTQVTVSS",0.09,2.97,0.09,0.0224,5.05e-05,2.25e+06,–
"2V15-9GS (VHH, Tandem bivalent nanobody) QLQLVESGGGSVQPGGSLRLSCEVSGRTFASYTMGWFRQAPGKEREFVVAISKGGYKYDSVSLEARFTISKDNTKNTVYLQMNSLKPEDTAVYYCAGTRAYGSSRLRLAETYEYWGQGTQVTVSSGGGGSGGGSQLQLVESGGGSVQPGGSLRLSCEVSGRTFASYTMGWFRQAPGKEREFVVAISKGGYKYDSVSLEARFTISKDNTKNTVYLQMNSLKPEDTAVYYCAGTRAYGSSRLRLAETYEYWGQGTQVTVSS",0.24,2.07,0.24,–,–,–,EC50 [5]: 0.22 nM; EC50 [6]: 0.25 nM; IC50 [7]: 3.61 nM; IC50 [8]: 3.13 nM; Maximum inhibition rate (%) [8]: 88.4%
"2V29-9GS (VHH, Tandem bivalent nanobody) QLQLVESGGGSVQPGGSLRLSCEVSGRTFSSYTMGWFRQAPGKEREFVVAISKGGYKYDSVSLEARFTISKDNTKNTVYLQMNSLKPEDTAVYYCAGTRAYGSSRLRLANTYEYWGQGTQVTVSSGGGGSGGGSQLQLVESGGGSVQPGGSLRLSCEVSGRTFSSYTMGWFRQAPGKEREFVVAISKGGYKYDSVSLEARFTISKDNTKNTVYLQMNSLKPEDTAVYYCAGTRAYGSSRLRLANTYEYWGQGTQVTVSS",0.31,1.77,–,–,–,–,–
"2V30-9GS (VHH, Tandem bivalent nanobody) QLQLVESGGGSVQPGGSLRLSCEVSGRTFSSYTMGWFRQAPGKGREFVVAISKGGYKYDAVSLEARFTISKDNTKNTVYLQMNSLKPEDTAVYYCAATRAYGSSRLRLAKTYEYWGQGTQVTVSSGGGGSGGGSQLQLVESGGGSVQPGGSLRLSCEVSGRTFSSYTMGWFRQAPGKGREFVVAISKGGYKYDAVSLEARFTISKDNTKNTVYLQMNSLKPEDTAVYYCAATRAYGSSRLRLAKTYEYWGQGTQVTVSS",0.25,1.41,–,0.0222,9.29e-05,4.18e+06,–
"2V33-9GS (VHH, Tandem bivalent nanobody) QLQLVESGGGSVQPGGSLRLSCEVSGRTFSSYTMGWFRQAPGKEREFVVAISKGGYKYDSVSLEARFTISKDNTKNTVYLQMNSLKPEDTAVYYCAATRAYGSSRLRLAKTYEYWGQGTQVTVSSGGGGSGGGSQLQLVESGGGSVQPGGSLRLSCEVSGRTFSSYTMGWFRQAPGKEREFVVAISKGGYKYDSVSLEARFTISKDNTKNTVYLQMNSLKPEDTAVYYCAATRAYGSSRLRLAKTYEYWGQGTQVTVSS",0.32,3.48,–,–,–,–,–
"2V36-9GS (VHH, Tandem bivalent nanobody) QLQLVESGGGSVQPGGSLRLSCEVSGRTFASYTMGWFRQAPGKEREFVVAISKGGYKYDSVSLEARFTISKDNTKNTVYLQMNSLKPEDTAVYYCAGTRAYGSSRLRLADTYEYWGQGTQVTVSSGGGGSGGGSQLQLVESGGGSVQPGGSLRLSCEVSGRTFASYTMGWFRQAPGKEREFVVAISKGGYKYDSVSLEARFTISKDNTKNTVYLQMNSLKPEDTAVYYCAGTRAYGSSRLRLADTYEYWGQGTQVTVSS",0.3,3,–,–,–,–,–
"V15 (VHH, Monovalent nanobody; tag not described here, the ELISA detects a His tag) VHH: QLQLVESGGGSVQPGGSLRLSCEVSGRTFASYTMGWFRQAPGKEREFVVAISKGGYKYDSVSLEARFTISKDNTKNTVYLQMNSLKPEDTAVYYCAGTRAYGSSRLRLAETYEYWGQGTQVTVSS",–,–,1,–,–,–,IC50 [7]: 6.65 nM
"V43 (VHH, Monovalent nanobody; tag not described here, the ELISA detects a His tag) VHH: QLQLVESGGGSVQPGGSLRLSCEVSGRTFTSYTMGWFRQAPGKEREFVVAISKGGYKYDSVSLEARFTISKDNTKNTVYLQMNSLKPEDTAVYYCAGTRAYGSSRLRLANTYEYWGQGTQVTVSS",–,–,0.31,0.116,8.63e-05,743000,–
